Data published in patent JP2016028048A (dated 2016).
Residue numbers refer to the chain shown, from its start.

B1: TP-2A2 (Fab, V domains shown)
VH: QVQLVESGGGLVQPGGSLRLSCAASGFTFSNNAMNWVRQAPGKGLEWVSTISYDGSNTYYADSVKGRFTISRDNSKNTLYLQMNSLRAEDTAVYYCARQAGGWTYSYTDVWGQGTLVTVSS
VL: DIELTQPPSVSVAPGQTARISCSGDNIRTYYVHWYQQKPGQAPVVVIYGDSKRPSGIPERFSGSNSGNTATLTISGTQAEDEADYYCQSYDSEADSEVFGGGTKLTVLG
notes: Human Fab (HuCal Gold), made in E. coli TG1
B2: TP-2C1 (Fab, V domains shown)
VH: QVQLVESGGGLVQPGGSLRLSCAASGFTFSPYVMSWVRQAPGKGLEWVSSISSSSSNTYYADSVKGRFTISRDNSKNTLYLQMNSLRAEDTAVYYCARGDSYMYDVWGQGTLVTVSS
VL: DIELTQPPSVSVAPGQTARISCSGDSIGSYYAHWYQQKPGQAPVLVIYYDSKRPSGIPERFSGSNSGNTATLTISGTQAEDEADYYCQAYTGQSISRVFGGGTKLTVLG
notes: as for B1
B3: TP-2G4 (Fab, V domains shown)
VH: QVQLVESGGGLVQPGGSLRLSCAASGFTFSSYAMTWVRQAPGKGLEWVSNISYSGSNTYYADSVKGRFTISRDNSKNTLYLQMNSLRAEDTAVYYCARVGYYYGFDYWGQGTLVTVSS
VL: DIELTQPPSVSVAPGQTARISCSGDALRKHYVYWYQQKPGQAPVLVIYGDNNRPSGIPERFSGSNSGNTATLTISGTQAEDEADYYCQSYDKPYPILVFGGGTKLTVLG
notes: as for B1
B4: TP-2G2 (Fab, V domains shown)
VH: QVQLVESGGGLVQPGGSLRLSCAASGFTFSSYAMNWVRQAPGKGLEWVSAILSDGSSTSYADSVKGRFTISRDNSKNTLYLQMNSLRAEDTAVYYCARYPDWGWYTDVWGQGTLVTVSS
VL: DIELTQPPSVSVAPGQTARISCSGDNIRKFYVHWYQQKPGQAPVLVIYGTNKRPSGIPERFSGSNSGNTATLTISGTQAEDEADYYCQSYDSKFNTVFGGGTKLTVLG
notes: as for B1
B5: TP-2E5 (Fab, V domains shown)
VH: QVQLQQSGPGLVKPSQTLSLTCAISGDSVSSNSAAWSWIRQSPGRGLEWLGMIFYRSKWNNDYAVSVKSRITINPDTSKNQFSLQLNSVTPEDTAVYYCARVNANGYYAYVDLWGQGTLVTVSS
VL: DIQMTQSPSSLSASVGDRVTITCRASQPIYNSLSWYQQKPGKAPKLLIYGVSNLQSGVPSRFSGSGSGTDFTLTISSLQPEDFAVYYCLQVDNLPITFGQGTKVEIKR
notes: as for B1
B6: TP-2B9 (Fab, V domains shown)
VH: QVQLQQSGPGLVKPSQTLSLTCAISGDSVSSNSAAWGWIRQSPGRGLEWLGMIYHRSKWYNDYAVSVKSRITINPDTSKNQFSLQLNSVTPEDTAVYYCARYSSIGHMDYWGQGTLVTVSS
VL: DIQMTQSPSSLSASVGDRVTITCRASQSIRSYLAWYQQKPGKAPKLLIYKASNLQSGVPSRFSGSGSGTDFTLTISSLQPEDFAVYYCHQYSDSPVTFGQGTKVEIKR
notes: as for B1
B7: TP-2E3 (Fab, V domains shown)
VH: B6 VH with H55Y, Y102V, S103N, S104Q, I105Y, G106T, H107S, M108S
VL: DIALTQPASVSGSPGQSITISCTGTSSDIGGYNYVSWYQQHPGKAPKLMIYGVNYRPSGVSNRFSGSKSGNTASLTISGLQAEDEADYYCSSADKFTMSIVFGGGTKLTVLG
notes: as for B1
B8: TP-2D7 (Fab, V domains shown)
VH: QVQLQQSGPGLVKPSQTLSLTCAISGDSVSSNSAAWGWIRQSPGRGLEWLGLIYYRSKWYNDYAVSVKSRITINPDTSKNQFSLQLNSVTPEDTAVYYCARFGDTNRNGTDVWGQGTLVTVSS
VL: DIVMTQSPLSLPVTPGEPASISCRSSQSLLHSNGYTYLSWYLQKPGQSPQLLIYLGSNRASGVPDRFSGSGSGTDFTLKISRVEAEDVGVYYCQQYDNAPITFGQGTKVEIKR
notes: as for B1
B9: TP-2F9 (Fab, V domains shown)
VH: QVQLVESGGGLVQPGGSLRLSCAASGFTFYKYAMHWVRQAPGKGLEWVSGIQYDGSYTYYADSVKGRFTISRDNSKNTLYLQMNSLRAEDTAVYYCARYYCKCVDLWGQGTLVTVSS
VL: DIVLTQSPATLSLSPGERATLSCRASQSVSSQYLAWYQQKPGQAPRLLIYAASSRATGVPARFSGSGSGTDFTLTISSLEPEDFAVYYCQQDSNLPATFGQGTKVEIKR
notes: as for B1

Molecular target: T1, ヒト組織因子経路インヒビター (human TFPI) (human, UniProt P10646 29-304, limits assumed)
T1 construct: Coated on Maxisorp plates (ELISA) or amine-coupled to a CM5 chip (Biacore); also called ヒトTFPI; hTFPI
T1 sequence (looked up): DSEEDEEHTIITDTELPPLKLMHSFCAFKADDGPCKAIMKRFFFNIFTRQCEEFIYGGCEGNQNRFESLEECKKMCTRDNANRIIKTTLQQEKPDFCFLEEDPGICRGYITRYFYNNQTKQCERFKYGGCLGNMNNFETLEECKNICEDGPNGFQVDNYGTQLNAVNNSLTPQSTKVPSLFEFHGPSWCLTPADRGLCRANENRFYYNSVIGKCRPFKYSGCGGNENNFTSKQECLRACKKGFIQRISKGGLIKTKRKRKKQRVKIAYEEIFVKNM
Experiment: ELISA, Fab in bacterial lysate on human TFPI-coated plate

Binder	binding result
B1	binds
B2	binds
B3	binds
B4	binds
B5	binds
B6	binds
B7	binds
B8	binds
B9	binds
